The results in this text go back to publication PMC8509413.

For test [1], the target named is wild-type equine lutropin/choriogonadotropin receptor (eLH/CGR) (equine).
Test [2] shares this target. The source holds these as a separate data set.

Take “recombinant equine chorionic gonadotropin (rec-eCGβ/α) (from UniProt P08751 21-169; P01220 25-120) (ligand)”: the EC50 of rec-eCG-stimulated cAMP accumulation (HTRF) in transiently transfected CHO-K1 cells, 30 min with eLH/CGR-Y546F (equine) was 0.0959 µg/mL; with eLH/CGR-D405N (equine), 0.135 µg/mL; with eLH/CGR-R464H (equine) it was 0.914 µg/mL; with eLH/CGR-D564G (equine), 0.0583 µg/mL; with eLH/CGR-L457R (equine), 0.0244 µg/mL; with eLH/CGR-D578Y (equine), 0.0479 µg/mL. The same substance gave an EC50 of rec-eCG-stimulated cAMP accumulation (HTRF) in transiently transfected CHO-K1 cells, 30 min with eLH/CGR-M398T (equine) of 0.0198 µg/mL. The substance further showed an EC50 of rec-eCG-stimulated cAMP accumulation (HTRF) in transiently transfected CHO-K1 cells, 30 min (separate experiment of Table 2) in test [1] of 0.0303 µg/mL. The EC50 of rec-eCG-stimulated cAMP accumulation (HTRF) in transiently transfected CHO-K1 cells, 30 min (experiment of Table 1) in [2] was 0.0442 µg/mL.
